Results reported in paper doi:10.1101/2023.04.28.538712 (bioRxiv, 2023).
Positions count from the first letter of the chain named.

Columns and labels:
[1] = biological target: T1, β2-microglobulin, biotinylated (Homo sapiens, UniProt P61769); experiment: BLI; Octet-BLI K2; SA sensors loaded with 50 nM biotinylated β2-microglobulin; Nb24 variants in solution (25-400 nM in Fig. 5C); PBS + 0.05% Tween-20, 30°C, 1000 rpm; global fit, 1:1 partial dissociation binding model; KD mean of 3 independent experiments; conditions: both partners purified
T1 construct: β2-microglobulin, human; Surmise: such E. coli constructs are usually the mature protein with an added first methionine; also called human β2-microglobulin; recombinant β2-microglobulin

[2] = biological target: T2, SARS-CoV-2 Spike receptor-binding domain (RBD), biotinylated (SARS-CoV-2, strain ; …, UniProt P0DTC2); experiment: BLI; conditions: both partners purified
T2 construct: also called SARS-CoV-2 RBD; SarS-CoV-2 RBD

T1 sequence (P61769 21-119): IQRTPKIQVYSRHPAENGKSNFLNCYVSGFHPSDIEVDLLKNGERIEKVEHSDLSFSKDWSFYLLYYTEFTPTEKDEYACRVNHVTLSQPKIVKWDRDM

B1: Nb24 humanised variant, AbNatiV Exhaustive sampling (+buried) (VHH)
VHH: EVQLVESGGGLVQPGGSLRLSCAASGYTDSRYCMAWFRQAPGKGLEWVARINSGRDITYYADSVKGRFTISRDNAKNTVYLQMDSLKPEDTAVYYCATDIPLRCRDIVAKGGDGFRYWGQGTLVTVSS
notes: Parent: Nb24 WT; also called Exhausted +buried; source: E. coli Shuffle LysY, secreted to the medium, purified (His Mag Sepharose Excel beads, SEC Superdex 75)
Question: Does B1 bind [1]?
Answer: binds

B2: Nb24 humanised variant, Frequency and Structure-based humanisation (Llamanade) (VHH)
VHH: B1 VHH with E1Q, V79L, D84N, K87R, P88A, T98R
notes: Parent: Nb24 WT; also called Frequency & structure-based; Frequency and Structure-based humanised variant; source: E. coli Shuffle LysY, secreted to the medium, purified (His Mag Sepharose Excel beads, SEC Superdex 75)
Question: Does B2 bind [1]?
Answer: binds

B3: Nb24 WT nanobody (VHH)
VHH: QVQLQESGGGSVQAGGSLRLSCAASGYTDSRYCMAWFRQAPGKEREWVARINSGRDITYYADSVKGRFTFSQDNAKNTVYLQMDSLEPEDTATYYCATDIPLRCRDIVAKGGDGFRYWGQGTQVTVSS
notes: source: E. coli Shuffle LysY, secreted to the medium, purified (His Mag Sepharose Excel beads, SEC Superdex 75)
Question: Which Kd [1] does the source give for B3 here?
Answer: 79 nM

B4: Nb24 humanised variant, AbNatiV Enhanced sampling (+buried) (VHH)
VHH: B1 VHH with V5L, G44E, L45R, I70V, A75S, K87R, L123Q
notes: Parent: Nb24 WT; source: E. coli Shuffle LysY, secreted to the medium, purified (His Mag Sepharose Excel beads, SEC Superdex 75)
Question: Does B4 bind [1]?
Answer: binds

B5: Nb24 humanised variant, AbNatiV Enhanced sampling (VHH)
VHH: B1 VHH with V5L, G44E, L45R, I70F, A75S, K87R, L123Q
notes: Parent: Nb24 WT; also called Nb24 Enhanced; source: E. coli Shuffle LysY, secreted to the medium, purified (His Mag Sepharose Excel beads, SEC Superdex 75)
Question: Which Kd [1] does the source give for B5 here?
Answer: 68 nM

B6: Nb24 humanised variant, AbNatiV Exhaustive sampling (VHH)
VHH: B1 VHH with I70F, K87R, L123Q
notes: Parent: Nb24 WT; also called Nb24 Exhaustive; source: E. coli Shuffle LysY, secreted to the medium, purified (His Mag Sepharose Excel beads, SEC Superdex 75)
Question: With B6 as the binder, how does the Kd [1] read?
Answer: 75 nM

B7: mNb6 humanised variant, AbNatiV Enhanced sampling (+buried) (VHH)
VHH: EVQLVESGGGLVQPGGSLRLSCAASGYIFGRNAMGWVRQAPGKGREWVSGITRRGSITYYADSVKGRFTISRDNAKNTVYLQMNSLRPEDTAVYYCAADPASPAYGDYWGQGTQVTVSS
notes: Parent: mNb6 WT
Question: Does B7 bind [2]?
Answer: binds

B8: mNb6 humanised variant, AbNatiV Enhanced sampling (VHH)
VHH: B7 VHH with V37Y, G44E, W47L, S49A, Y80F
notes: Parent: mNb6 WT; also called mNb6 Enhanced
Question: Which Kd [2] does the source give for B8 here?
Answer: 0.86 nM

B9: mNb6 humanised variant, AbNatiV Exhaustive sampling (VHH)
VHH: B7 VHH with V37Y, R45L, S49A, Y80F, N84D, Q114L
notes: Parent: mNb6 WT; also called mNb6 Exhaustive
Question: With B9 as the binder, how does the Kd [2] read?
Answer: 15 nM

B10: mNb6 humanised variant, Frequency and Structure-based humanisation (Llamanade) (VHH)
VHH: B7 VHH with E1Q, R45L, S49A, V79L, P88A, A98R, Q114L
notes: Parent: mNb6 WT; also called Frequency & structure-based; Frequency and Structure-based variant
Question: Does B10 bind [2]?
Answer: no binding (tested: 500 nM)

B11: mNb6 humanised variant, AbNatiV Exhaustive sampling (+buried) (VHH)
VHH: B7 VHH with R45L, S49A, N84D, Q114L
notes: Parent: mNb6 WT; also called mNb6 Exhausted Sampling + buried; Exhausted +buried
Question: Does B11 bind [2]?
Answer: binds
